In experiment [1] the target is T1, cy-IL-36α (cynomolgus monkey IL-36α, K6-F158) (cynomolgus monkey, UniProt Q9UHA7 14-158 (human entry)).
T1 construct: Purification tag cleaved off
T1 chain: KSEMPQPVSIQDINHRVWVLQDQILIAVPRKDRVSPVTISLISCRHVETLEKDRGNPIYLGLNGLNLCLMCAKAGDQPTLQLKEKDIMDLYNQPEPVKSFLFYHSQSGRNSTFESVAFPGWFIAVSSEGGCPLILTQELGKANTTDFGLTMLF
Kind of experiment: ELISA on coated cy- and hu-IL-36α, yeast Fab supernatant; ratio of OD450. The protocol:
(§1) Cell supernatants from yeast clones of interest were tested for binding to human IL-36 by ELISA as described above. To compare the binding of these supernatants to human and cynomolgus monkey IL-36, IL-36 proteins were coated at 2.5 μg/mL on 96-well Nunc MaxiSorp plates (Thermo Fisher) and the plates blocked with 5% goat serum in PBS. Yeast supernatants were diluted 1:1 with PBST containing 1% w/v BSA and added to the ELISA plates for 1-1.5 hours with agitation. Bound Fab was detected by incubating the plates with F(ab′)2-HRP (Jackson ImmunoResearch). The ELISAs were developed for 3-10 minutes by addition of 50 μL/well of tetramethylbenzidine (TMB) microwell peroxidase substrate (Scytek Laboratories, Inc., Logan, Utah, USA) and enzymatic color development was stopped by acidification with 50 µL/well of 2 N H₂SO₄ (Sigma-Aldrich Corporation, St. Louis, Mo., USA). The optical density of the samples at a wavelength of 450 nm (OD450) was analyzed with a SpectraMax i3X plate reader (Molecular Devices LLC, San Jose, Calif., USA). To estimate the relative affinity of each clone for cynomolgus monkey IL-36 and human IL-36 in this assay, a ratio of OD450 (OD450_cyIL-36/OD450_huIL-36) was calculated for each clone and IL-36 cytokine.
(In general: An ELISA detects its analyte on a solid surface through an enzyme-linked reagent.)

For experiment [2], the target named is T2, cy-IL-36γ (cynomolgus monkey IL-36γ, S18-K168) (cynomolgus monkey, UniProt Q9NZH8 18-167 (human entry)).
T2 construct: Purification tag cleaved off
T2 chain: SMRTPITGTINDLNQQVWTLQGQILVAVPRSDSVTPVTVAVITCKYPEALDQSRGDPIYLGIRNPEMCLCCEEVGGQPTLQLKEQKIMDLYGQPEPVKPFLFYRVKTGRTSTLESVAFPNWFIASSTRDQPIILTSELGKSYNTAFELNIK
Kind of experiment: ELISA on coated cy- and hu-IL-36γ, yeast Fab supernatant; ratio of OD450. As to the method: as §1

The target in experiment [3] is T3, hu-IL-36α (human IL-36α, N-terminally truncated active form K6-F158) (human, UniProt Q9UHA7 6-158).
T3 sequence: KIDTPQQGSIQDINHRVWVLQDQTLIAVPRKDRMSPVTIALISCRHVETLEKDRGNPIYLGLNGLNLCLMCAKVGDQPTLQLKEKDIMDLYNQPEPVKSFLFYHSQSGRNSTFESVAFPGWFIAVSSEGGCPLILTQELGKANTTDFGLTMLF
Kind of experiment: cell-based or functional assay.

The target in experiment [4] is T4, hu-IL-36γ (human IL-36γ, N-terminally truncated active form S18-D169) (human, UniProt Q9NZH8 18-169).
T4 sequence: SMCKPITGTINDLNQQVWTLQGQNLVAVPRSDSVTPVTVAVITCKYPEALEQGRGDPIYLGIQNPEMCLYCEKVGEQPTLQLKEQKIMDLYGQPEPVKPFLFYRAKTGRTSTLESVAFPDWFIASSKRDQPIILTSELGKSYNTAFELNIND
As to the kind of experiment: cell-based or functional assay.

Experiment [5] addresses T3, hu-IL-36α (human IL-36α, N-terminally …). As to the kind of experiment: ELISA, yeast Fab supernatant, anti-Fab-HRP.
The target of experiment [6] is T4, hu-IL-36γ (human IL-36γ, N-terminally …). Kind of experiment: ELISA, yeast Fab supernatant, anti-Fab-HRP.
In experiment [7] the target is T3, hu-IL-36α (human IL-36α, N-terminally …). As to the kind of experiment: cell-based or functional assay. The source holds these as a separate data set.
Experiment [8] deals with T4, hu-IL-36γ (human IL-36γ, N-terminally …). Kind of experiment: cell-based or functional assay. This is another data set of the same source.
The target of experiment [9] is T3, hu-IL-36α (human IL-36α, N-terminally …). As to the kind of experiment: phage competition ELISA: Fab on phage, soluble hu-IL-36α titrated against coated hu-IL-36α. As to the method: (§2) Selected phages with top binding signal were purified to perform phage competition ELISA. The optimal phage concentration was incubated with serially-diluted human IL-36α or human IL-36γ in ELISA buffer in NUNC F plate for two hours. 80 μL of the mixture was transferred to human IL-36α or human IL-36γ coated wells for 15 min to capture unbound phage. The plate was washed with wash buffer (0.05% TWEEN®20 in PBS), and HRP-conjugated anti-M13 antibody (Sino biological, Cat #11973-MM05-H-50) was added in ELISA buffer for 30 min. The plates were washed and developed as described above. The absorbance at 450 nm was plotted as a function of antigen concentration in solution to determine phage IC50.

Experiment [10] deals with T4, hu-IL-36γ (human IL-36γ, N-terminally …). Kind of experiment: phage competition ELISA: Fab on phage, soluble hu-IL-36γ titrated against coated hu-IL-36γ. The protocol:
as §2

B1: mAb1.0 Fab (yeast clone culture supernatant) (Fab, V domains shown)
VH: QVQLVESGGGVVQPGRSLRLSCAASGFSFSAYAMHWVRQAPGKGLEWVAVISYDGTNEYYADSVKGRFTISRDNSKNTLYLQMNSLRAEDTAVYYCARGIRIFTSYFDSWGQGTLVTVSS
VL: QSVLTQPPSVSGAPGQRVTISCTGSSSNIGAHYDVHWYQQLPGTAPKLLIYSNNNRPSGVPDRFSGSKSGTSASLAITGLQAEDEADYYCQSYDYSLRGYVFGGGTKLTVL
notes: Human Fab secreted by the yeast clone, not purified
As to B1, the figures for the “ELISA OD450cyIL-36/OD450hu-IL-36” value in [1] and in experiment [2] were 0.6 ratio and 1.3 ratio, respectively. For the same molecule, the “% Inhibition, HEK-Blue IL-36R SEAP reporter assay” value in experiment [3] was found to be 70%; in experiment [4], 31%. The “ELISA OD450” value in experiment [5] was 0.94 OD450; in experiment [6], 2.43 OD450.

B2: mAb1.0 recombinant human IgG1 (antibody, V domains shown)
VH: QVQLVESGGGVVQPGRSLRLSCAASGFSFSAYAMHWVRQAPGKGLEWVAVISYDGTNEYYADSVKGRFTISRDNSKNTLYLQMNSLRAEDTAVYYCARGIRIFTSYFDSWGQGTLVTVSS
VL: QSVLTQPPSVSGAPGQRVTISCTGSSSNIGAHYDVHWYQQLPGTAPKLLIYSNNNRPSGVPDRFSGSKSGTSASLAITGLQAEDEADYYCQSYDYSLRGYVFGGGTKLTVL
Consider B2, for which the “IC50, HEK-Blue IL-36R SEAP reporter assay” value was 43 nM in [7] and 5.3 nM in [8].

B3: mAb4.0 recombinant human IgG1 (antibody, V domains shown)
VH: QLQLQESGPGLVKPSETLSLTCTVSGGSIGSRSYYWGWIRQPPGKGLEWIGSIHYSGTTYYNPSLKSRVTISVDTSKNQFSLKLSSVTAADTAVYYCARVAPSYPRVFDYWGQGTLVTVSS
VL: QSVLTQPPSVSGAPGQRVTISCTGSSSNIGAGYDVHWYQQLPGTAPKLLIYGNRNRPSGVPDRFSGSKSGTSASLAITGLQAEDEADYYCQSYDYSLRVYVFGGGTKLTVL
On to B3, for which the “IC50, HEK-Blue IL-36R SEAP reporter assay” value stood at 16 nM in [7] and 52 nM in experiment [8].

B4: mAb3.0 recombinant human IgG1 (antibody, V domains shown)
VH: QLQLQESGPGLVKPSETLSLTCTVSGGSISSTSYYWGWIRQPPGKGLEWIGSIHYSGNTYYNPSLKSRVTISVDTSKNQFSLKLSSVTAADTAVYYCARVHYGGYIPRRFDHWGQGTLVTVSS
VL: QSVLTQPPSVSGAPGQRVTISCTGSSSNIGAGYDVHWYQQLPGTAPKLLIYGNTNRPSGVPDRFSGSKSGTSASLAITGLQAEDEADYYCQSYDYSLRGYVFGGGTKLTVL
Consider B4, for which the “IC50, HEK-Blue IL-36R SEAP reporter assay” value is 90 nM in experiment [7] and 30 nM in [8].

B5: mAb5.0 recombinant human IgG1 (antibody, V domains shown)
VH: EVQLLESGGGLVQPGGSLRLSCAASGFTFSTYAMSWVRQAPGKGLEWVSGISGGSGYTYYADSVKGRFTISRDNSKNTLYLQMNSLRAEDTAVYYCARVVTYRDPPASFDYWGQGTLVTVSS
VL: QSVLTQPPSVSGAPGQRVTISCTGSSSNIGAHYDVHWYQQLPGTAPKLLIYGNDNRPSGVPDRFSGSKSGTSASLAITGLQAEDEADYYCQSYDYSLKAYVFGGGTKLTVL
In the case of B5, the “IC50, HEK-Blue IL-36R SEAP reporter assay” value in [7] is 95 nM; in experiment [8], 142 nM.

B6: mAb2.6 Fab (phage-displayed) (Fab, V domains shown)
VH: ELQLQESGPGLVKPSETLSLTCTVSGGSISTSSYHWGWIRQPPGKGLEWIGSIYYTGNTYYMPSLKSRVTISVDTSKNQFSLKLSSVTAADTAVYYCVRVRYGVGVPRYFDPWGQGTLVTVSS
VL: ESVLTQPPSVSGAPGQRVTISCTGSSSNIGAHYDVHWYQQLPGTAPKLLIYGNDNRPSGVPDRFSGSKSGTSASLAITGLQAEDEADYYCQSYDYSLSGYVFGGGTKLTVL
In general, IC50 refers to the concentration needed to halve the response being measured. For B6, the IC50 in [9] came to 1.62 nM; in [10], 1.99 nM.

B7: mAb2.3 Fab (phage-displayed) (Fab, V domains shown)
VH: ELQLQESGPGLVKPSETLSLTCTVSGGSISTSSDYWGWIRQPPGKGLEWIGSIYYTGNTYYLPSLKSRVTISVDTSKNQFSLKLSSVTAADTAVYYCSRVRYGVGVPRYFDPWGQGTLVTVSS
VL: ESVLTQPPSVSGAPGQRVTISCTGSSSNIGAHYDVHWYQQLPGTAPKLLIYGNDNRPSGVPDRFSGSKSGTSASLAITGLQAEDEADYYCQSYDYSLSGYVFGGGTKLTVL
For B7, the half-inhibitory concentration (IC50) in experiment [9] was determined as 0.82 nM; in experiment [10], 2.39 nM.

B8: mAb2.4 Fab (phage-displayed) (Fab, V domains shown)
VH: ELQLQESGPGLVKPSETLSLTCTVSGGSISNSSYYWGWIRQPPGKGLEWIGSIYYTGNTYYLPSLKSRVTISVDTSKNQFSLKLSSVTAADTAVYYCARVRYGVGVPRYFDPWGQGTLVTVSS
VL: ESVLTQPPSVSGAPGQRVTISCTGSSSNIGAHYDVHWYQQLPGTAPKLLIYGNDNRPSGVPDRFSGSKSGTSASLAITGLQAEDEADYYCQSYDYSLSGYVFGGGTKLTVL
As to B8, the results for the 50% inhibitory concentration (IC50) in [9] and in [10] were 0.68 nM and 1.52 nM, respectively.

B9: mAb2.7 Fab (phage-displayed) (Fab, V domains shown)
VH: ELQLQESGPGLVKPSETLSLTCTVSGGSISRSSYYWGWIRQPPGKGLEWIGSIYYTGNTYYWPSLKSRVTISVDTSKNQFSLKLSSVTAADTAVYYCTRVRYGVGVPRYFDPWGQGTLVTVSS
VL: ESVLTQPPSVSGAPGQRVTISCTGSSSNIGAHYDVHWYQQLPGTAPKLLIYGNDNRPSGVPDRFSGSKSGTSASLAITGLQAEDEADYYCQSYDYSLSGYVFGGGTKLTVL
As to B9, the IC50 in experiment [9] turned out to be 1.2 nM; in experiment [10] it was 1.53 nM.

B10: mAb2.2 Fab (phage-displayed) (Fab, V domains shown)
VH: ELQLQESGPGLVKPSETLSLTCTVSGGSISESSYYWGWIRQPPGKGLEWIGSIYYTGNTYYNPSLKSRVTISVDTSKNQFSLKLSSVTAADTAVYYCAGVRYGVGVPRYFDPWGQGTLVTVSS
VL: ESVLTQPPSVSGAPGQRVTISCTGSSSNIGAHYDVHWYQQLPGTAPKLLIYGNDNRPSGVPDRFSGSKSGTSASLAITGLQAEDEADYYCQSYDYSLSGYVFGGGTKLTVL
For B10, the figures for the IC50 in [9] and in experiment [10] were 0.75 nM and 3.79 nM, respectively.

B11: mAb2.5 Fab (phage-displayed) (Fab, V domains shown)
VH: ELQLQESGPGLVKPSETLSLTCTVSGGSISESSYYWGWIRQPPGKGLEWIGSIYYTGNTYYLPSLKSRVTISVDTSKNQFSLKLSSVTAADTAVYYCARVRYGVGVPRYFDPWGQGTLVTVSS
VL: ESVLTQPPSVSGAPGQRVTISCTGSSSNIGAHYDVHWYQQLPGTAPKLLIYGNDNRPSGVPDRFSGSKSGTSASLAITGLQAEDEADYYCQSYDYSLSGYVFGGGTKLTVL
Turning to B11, the IC50 in experiment [9] came out at 0.77 nM; in [10], 1.88 nM.

Values taken from patent US20230235040A1 (ALMIRALL S A, published 2023).
